From a protein production outcome set (Wang et al. 2014)

Test: label from the status in PepcDB records

Sequence	protein production
MLKALKKIFGKADGTQPQSGSSPVPQGPAGATAKGTAPTGEKPTEKRPRKPRPPRADNESGAPRAAEKAEKAEKPAKPAGKEGRDAKPRTDKPRRERKPKPVDNWKLEDFVVEPQEGKTRFHDFNLAPSLMHAIHDLGFPYCTPIQAQVLGFTLRGQDAIGRAQTGTGKTAAFLISIITQLLQTPPPKERYMGEPRALIIAPTRELVVQIAKDAAALTKYTGLNVMTFVGGMDFDKQLKQLEARFCDILVATPGRLLDFNQRGEVHLDMVEVMVLDEADRMLDMGFIPQVRQIIRQTPHKGERQTLLFSATFTDDVMNLAKQWTVDPAIVEIEPENVASDTVEQHVYAVAGSDKYKLLYNLVAQNNWERVMVFANRKDEVRRIEERLTKDGISAAQMSGDVPQHKRIRTLEGFREGKIRVLVATDVAGRGIHIDGISHVINFTLPEDPDDYVHRIGRTGRAGASGTSISFAGEDDAFALPPIEELLGRKITCEMPPAELLKPVPRKH	failed
MPLAIIPWFELPSASLGPFTLQSFGVLSALGILAAVQLSARGAKQLGKDPQVILDFAVVGVLAGVVVGHLAHLFFYHPEELQDPLRIFKFWEGLSSMGGLAGGMIAAAVYFRRKRVRFTAYADAFALGVAPGWGIARVGCFTVHDHPGRLTDFFLAVRFPDGPRHDLGLYEAILLLSLGAVLWALHRRDVLRGRLLPLLALVYGIGRFLLDFLRATDVSYADARHLGLTFAQYFAVALVAYAVWGFARRPSDEERVRVSTGVGRR	failed
MANEDCPKAADSPFSSDKHAQLILAQINKMRNGQHFCDVQLQVGQESFKAHRLVLAASSPYFAALFTGGMKESSKDVVPILGIEAGIFQILLDFIYTGIVNIGVNNVQELIIAADMLQLTEVVHLCCEFLKGQIDPLNCIGIFQFSEQIACHDLLEFSENYIHVHFLEVHSGEEFLALTKDQLIKILRSEELSIEDEYQVFLAAMQWILKDLGKRRKHVVEVLDPIRFPLLPPQRLLKYIEGVSDFNLRVALQTLLKEYCEVCKSPKENKFCSFLQTSKVRPRKKARKYLYAVGGYTRLQGGRWSDSRALSCVERFDTFSQYWTTVSSLHQARSGLGVTVLGGMVYAIGGEKDSMIFDCTECYDPVTKQWTTVASMNHPRCGLGVCVCYGAIYALGGWVGAEIGNTIERFDPDENKWEVVGNMAVSRYYFGCCEMQGLIYVIGGISNEGIELRSFEVYDPLSKRWSPLPPMGTRRAYLGVAALNDCIYSVGGWNETQDALHTVEKYSFEEEKWVEVASMKVPRAGMCVVAVNGLLYVSGGRSSSHDFLAPGTLDSVEVYNPHSDTWTEIGNMITSRCEGGVAVL	failed
MKPRGICFFDMDGTLLNSESKVLDTSLQALDKLRENNVIPVIATGRTLIEISHQMKITGIESAVMMNGQMAIFEGEKVYEDVIDADLLDRLTEEAKSQNVEVCYYNDKRIGATASTPVVKAHYDFLGEPMPKVRPNMYKEETINMALLLLETGDDYFPERFPELQFVRNTPFSNDVLRKGGSKAVGISKLLEVMGYQDVPTYAFGDGMNDLEMFGAVDYAIAMENAVPLLKEKADFVTKDNNSDGIMLGLKQFDLI	failed
MKIILANPRGFCAGVDRAISIVELALEIHGAPIYVRHEVVHNRFVVNGLRERGAIFVEELSEVPDGAIVIFSAHGVSQAVRQEAKDRNLKVFDATCPLVTKVHMQVARASRKGTKAILIGHKGHPEVEGTMGQYSNEDGGIFLIEKVEDIARLPMQENDNLTFMTQTTLSLDDTAETIAALKEKYPAIQGPHKNDICYATTNRQEAVRELAKLSDLVLVVGSKNSSNSNRLAELASRMGVKSQLLDEPADIQADWFNDVKTIGITAGASAPEELGQSIISRLKRFGAN	failed
MKKTMAKSLSVIIPACNEIDTISDVIQSVKGLNPLEIIVVANGCTDGTETVAEHLGCKVLRYTEKLGNDVGRAAGAKEAIGDVLLFIDGDFAIQTSKLQLFLNPILYNQADVVLNNLDALFLKRQKPNSITVWRQILNSILEREELKIDSLLAVPHALTKEVVQSIGYECFVNPILAHLRLVQGKWRISRHCAIDVITPNKFRPTEHAAYGTDLSPSEKRMIGDHIEAVAERIVGSDERGGYCDGNRKRDSVYHTLDFEDFYQGWGVTSNLYKGKQLSVIIPVQNEEKTIGNVIEEVRKIEPFEIIVVVNGSSDQTATIAKDKGATTIVYKEALGNDVGRSLGTYFAKGEIVLFIDGDFVIPASELYPFAKAIADGTDVALNDLNHYLDLRVPLHLVTAFKYALNLACDRKDLGVGSLVAVPNAFSRKCLKQIGYRSLLAPCVAQVKAILSGFEVACVSRVEVDKMNRIRPSEHLAKIGHPPAVLRIIGDHIEGLEQLIGLTGSRGGFHDGNRKRDIL	failed
MRILAIVKRIVNQFRRDKRTLALMFLAPLLLITLLTYLFEGDTVKPVVGVNGLSSSMVKELKENDLTIKTYPDNTNATAKIKDADLDAFFQQDGEKIKVTYENSEPSLSKEIGLKLQKALMAEQQVQVKKQAKTTGEALAKAGIDPNSLPALTNSPEKLTISTDYVYGDKDTSFFDTISPIFIGFFVFFFVFLIAGISFLRERTTGTLERLMATPIKRIELELGYLIGFGIFALLQSILVAVFSIQVLGMMQNGSLFYVLLITLTLGMVSLALGILLSTFANNEFQIVQFIPIVIVPQVLFCGIFPLDGMADWLVWIAHIMPLYYGANALTSIMVKGEGFASFANDFYILLGFVIIFVVLNIFALKKYRKV	failed
MWLRSYRITFSCLTRLKTYRSSWKKLYSTSQTVDSKEVKTFQALAHSWWDEQGKFAPLHSMNDLRVPFIRDNLLKTSTNHDPGKPLSGMKILDVGCGGGLLTEPLGRLGASVVGIDPVAENIKIAQHHKSFDPVLDKRIQYRVCSLEETLNENAECFDAVVASEVVEHVNNLEMFIQCCYQVLKPGGSLFITTVNKTQLSYVLGIVFSEQIAGIVPKGTHTWEKFVSPEKLESILEPNGLSVETVAGMVYNPFSGYWHWTENTSLNYAAHAVRARAQEHLEPAESA	failed
MLVTSLVVKPALSTTLKMCTFSTLSAFVLTACSGNAETTNVAEIQHDMGSATAAASPKATAPEGTVLKRSAIDALQTVGNSIGIKIGSHLELGSAADFEKGNTTKVSIDAECFDMTSSSKAFIVACSDGVHSVDPVSGKNSVIAQPTETAHYAVQVSTGEVLVAHRDSNKVEVFNDGEKLSEVATEYGSDQLISVPIEGQADAVVRINNKYTLIQDVNWKESKPGAILRVGKGVGRISAAKQGVVLASDAKKNQFAVYGAKDVIRLHQTSPTGPSPWGITWDNKHDLAWVATTGDNKVTGYDISSGTGSEKSSYNTIENVHNIAVLDDGTLVLASASGAGLQLVKSQTD	failed
MLSKFIKTTLATSLLITLSACSNLKSPVPPAKKADQEKLYESTKNYNALIAMYRADLKHFKDPMTQFKLAKSYYHIGDSKSSVLYLKPLRFTKQPFNNEIELLYIRNLIQLGKYQEAQTVATDLIKMSPQNSEAYNLRGISSAQQGELAKAEQDMNKARELFINDVVAINNIAMLNILNNDYRNAVNLLLPQYLNGSKDSRLIHNLVFALVKSGDIDYATDIIRKESLYASPEDLINALKNTEKAPKVGR	failed
MTKRHVSLPADAKDVRRAFVSGVDERLSAAETPDELATAVTGTLADLRGERDAYEAWRDGDDVRPAAAARLATLDPRNASLESEYYAEKDEAAFARSKPLQWLWRQFDTTPLADNVDVALPFRRMLAGHLFAGVGEDVRLFKGITMTYGHNIELGDNAVVHDGVHLDDRGELVVGARASVSNGAHLYTHDHDVVDQTDVTNYRTEIGADARVTQGALVRAGVRVGENALVGSRSVVQGDVPAHHIAVGSPAESVRVKPGWEAVAAPLDAGLEHHHHHH	not failed
MLPQILIVILSLIEGLDPYKGLLFSYYFYSFKKVKESFVVPLLSTLSYYSLGILVVFFTFSSLQSSNSTKVIVIFLVIIHILMKMFLGKLLHYTGSMRVSVYNLVKSTFLNSILQMNVILLIILAIIVNTLFVFLPVGVFIVREVTYFIVLKKNNVLVLLTKFNFDYIYSVTLLILALAVLLQS	failed
MTFSNQLTILRIILVPVFVLLLMQDSAWYRLLGVIVFVTASLTDIYDGYHARKYGEVTRLGAFLDPLADKLLITTAFLFYVWEGYLALWMVLLVAARDIVVTGLRVYAEHIDHPVVTSKEAKYKTFAQNLFAYVIMLFILLKEKSFFGPKMAAFMEVILHSPWLGYAMFAITLFTVWTGVSYLISNRRLIFRNSAGGR	not failed
MSGTLLAFDFGTKSIGVAVGQRITGTARPLPAIKAQDGTPDWNIIERLLKEWQPDEIIVGLPLNMDGTEQPLTARARKFANRIHGRFGVEVKLHDERLSTVEARSGLFEQGGYRALNKGKVDSASAVIILESYFEQGY	not failed
MSLTTVGIRGTFFDFVDDPWKHIGNEQAAARFHQDGLMVVTDGVIKAFGPYEKIAAAHPGVEITHIKDRIIVPGFIDGHIHLPQTRVLGAYGEQLLPWLQKSIYPEEIKYKDRNYAREGVKRFLDALLAAGTTTCQAFTSSSPVATEELFEEASRRNMRVIAGLTGIDRNAPAEFIDTPENFYRDSKRLIAQYHDKGRNLYAITPRFAFGASPELLKACQRLKHEHPDCWVNTHISENPAECSGVLVEHPDCQDYLGVYEKFDLVGPKFSGGHGVYLSNNEFRRMSKKGAAVVFCPCSNLFLGSGLFRLGRATDPEHRVKMSFGTDVGGGNRFSMISVLDDAYKVGMCNNTLLDGSIDPSRKDLAEAERNKLSPYRGFWSVTLGGAEGLYIDDKLGNFEPGKEADFVALDPNGGQLAQPWHQSLIADGAGPRTVDEAASMLFAVMMVGDDRCVDETWVMGKRLYKKSEGHHHHHH	not failed
MFQKIAKECLAGFTVAIVALPLAIAFGIAATGTSEGALVGLYGAIFAGLFAALFGGTPGQVTGPTGPITVIATGVIATHGLEASFIVFMMAGLFQILFGVCKLGSYVRYIPYPVVSGFMNGIALIIILGEMKHVQNSFLLVVLTIIVMIVSGKWIKAIPSSLVALVGVTAMLPLFSSALEGLTVKLPVIGNLSLNKVIEKIGTIPEAMPTLHIPSLSGTGIAELILPALSIALLGSIDSLLTSVVMDNVTGTRHKSNKELVGQGIGNVMSGLFGGLAGAGATVRSIVNIRSGGKTALSASMHSVILFIFIMGLGSVVQYIPLAVLSGILILTGIGMFDWESMKKMHVAPKGDVVVMLVTMIVTVKFDLMIAVAFGIILAFIIYMVKCKERKASIVKEKEAIYKIKGPLSFLTVDRVFYALQDVKSPVVLRMKDTRYMDVSGAMALLNFIEQSGKSGLSVTLEQVPAHIEKILVTMASSEQKDKLLFTEADVMQGNALV	failed
RRHYIDAFGTGPGFAAVASFYPGCFRIKPPGGRDYDLVGPDIAQPLLLLMGDADTETPAAECVDKLTPLKAAGAPVEWHVYPSTTHCWDCQQLDGRSKTDVRGNHVAYRYQPDVVADSERRLFAFLER	failed
MIYLQNFITTTIQLNIYLILVIGLLYVIIHYYRNKGVNAFLDIYLNYIPVLTHEFGHVLFNKLAGGKAKDLVIVTSPRERKVTSQQGYAITQSKGYLGQFITTIGGYLMPPLMFLTGLVSIHYQYPSIFITIYLFIFIYYLFITSRKLSPLIVIILISSLLYLVFKQDHQWFIYDIVTLSYHFILGVLLGEILQSSWTIFRLTFQRPKPSWDGSALTKVTRVPTFIFSLVWILFNLYTVYLLIKYTIL	failed
MIIEYLQLVGLGLVTMLPVANPLTSTTLLLALGSGFTRDERNRQIGRATVYVAAIILASFYAGNAIISSFGISIPGLRIAGGLIVAYIGFTMLFPATSQNEAQAQVEMAPDDPHIQVPGAAHTGPRPRDISFVPLALPGTAGPGTIALIISSASTLHSHGGITLIHHFAVITVTLLLALLFWACLRSAERVMRMLGQSGIDAISRVMGFLLICMGVQFIIDGVFELIRHPPGA	failed
EEELPFKVLGDGSYLFEGKTSLSDVRHYLDLPENAFGELGDEVDTLSGLFLEIKQELPHVGDTAVYEPFRFQVTQMDKRRIIEIKIFPFE	not failed
RAAASPITITVGDRALELSVLRPAAPKGVVVFSHGAGGTAEAYATLLEGWRQAGFLVVAPLHVDSQKHPRKTAYNLRSSFPLRIADVGAAAGWAAAAAPGLPLAYAGHSYGSLMSLMRGGALEGMIPARDPNAKAVLCFSSPGTIQGLMGPATFQTLTTPTMVLTGELDLVPGMVADWRDHLRAVEESPAGEKYAWIGKSVDHGLAHHPDNPAFAEASALSVTFLKAQLLGD	failed
